Measured values as given in paper PMC4728560, “TCTP contains a BH3-like domain, which instead of inhibiting, activates Bcl-xL” (Scientific Reports, 2016).
Where two headings read alike, the source gives them in different places.

Legend:
[1] = molecular target: Bcl-xL, recombinant protein (human) (UniProt Q07817); experiment: ITC; peptide titrated into Bcl-xL in the cell; 30 °C, 50 mM ammonium bicarbonate pH 9; ITC200 calorimeter
[2] = molecular target: Bcl-xL, recombinant protein (human) (UniProt Q07817); experiment: as above; remark: listed apart in the source

Sequence of Bcl-xL, recombinant protein (human) (Q07817 whole entry): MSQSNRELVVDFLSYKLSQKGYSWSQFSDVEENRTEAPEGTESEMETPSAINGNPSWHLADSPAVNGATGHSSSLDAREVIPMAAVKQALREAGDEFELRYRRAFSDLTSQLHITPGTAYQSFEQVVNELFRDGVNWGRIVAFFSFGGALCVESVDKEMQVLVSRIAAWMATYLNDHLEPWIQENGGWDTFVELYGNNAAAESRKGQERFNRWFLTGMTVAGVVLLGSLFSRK

Q: How did the Kd [1] turn out when DEMFSDIYKIREIADGLCLEV [TCTP_(11–31) peptide] was run?
A: 12 µM

Q: What about the Kd [2] of the same binder?
A: 10 to 15 µM
